Experimental data from US11814689B2 (priority 2021, dated 2023).

Assays:
[1] = tested on: ssDNA; type: biochemical; settings: for ssDNA cleavage activity: 425 nM ssDNA, 200 nM nuclease, cyclic oligoadenylates
[2] = tested on: plasmid DNA; type: biochemical
[3] = tested on: plasmid DNA
[4] = tested on: 2 Kb DNA reporter labelled biotin and digoxigenin; type: biochemical
[5] = tested on: ssRNA; type: biochemical; settings: 425 nM ssRNA, 200 nM nuclease, cyclic oligoadenylates
[6] = tested on: fluorescent ssRNA reporter; type: biochemical
[7] = tested on: cA3 and cA4; type: biochemical
[8] = tested on: SARS-CoV-2 N gene RNA; type: biochemical; settings: IVT SARS-CoV-2 N gene fragment spiked in total RNA of negative swab, no RNA capture
[9] = tested on: SARS-CoV-2 RNA; type: biochemical
[10] = tested on: library of 46 synthetic RNAs; type: biochemical
[11] = tested on: fluorescent dsDNA reporter; type: biochemical

B1: TtCan1: Can1 from Thermus thermophilus, NCBI WP_011229147.1, SEQ ID NO. 61 (protein, listed as Thermus thermophilus)
chain: MQAPVYLCLLGNDPAPAYLGLKVVEREAGRVAKAVFYSFPAWNEEYGKKRQAFFRLLSEKGVLYEERPLEKGLEEAEAREVWVNLTGGAKYWAVRFLGHWRRPGARVFLVEGHRALEAPRALFLWPREEERSLEAEALTLEEYARLYLEPLGEAWERVSPPGAFPPGAQAARLPGREGGVFVVHRGLPYWYWVRPHLGGEAKDMSRKALSAFSGEAKRLGGQLCLPVVPYHKAHLRSRHPKERENVFARWRAWAREYGVFLVDPGRPLEEEVASLIKGKASKKALPLPQEGPLLLALVSEQAVPLYAAYLHAGPREVYLLTTPEMESRLRWAEAFFRGKGVRVHRSFLSGPWALREVRDLLAPVVEEALRRGHPVHANLNSGTTAMALGLYLALRDGARAHYLDGDRLLLLDGGEAEVPWEEGRPEDLLALRGYRFEEEYPDARPDPGLLALAEEILRRWDEVQTSWEASPLVRRFLKFWKKRFGQAFPPKRLSRLKGLPLEYAVYSHLNAHLAPKGGQARMGGHLVPLGGNEALAPQSTEVDGVFFHRGALWFVECKPTDEGLRERAPIMAELVRSVGGVEARGLMVARRWRGAPPPASPNLVYMALEGGEGVGVYRFPEELEKALSRNPAPRRG
In the case of B1, the ssDNA cleavage activity [1] is reported as “does not cleave ssDNA”, the “plasmid DNA cleavage with cA4” value [2] is reported as “comparable to the background activity” and the “size of plasmid DNA degradation fragments” value [2] is reported as roughly 100 bp. The “DNA sequence cleavage preference” value [3] was “non-sequence specific”, the “lateral flow result with cA3” value [4] was “positive result” and the “lateral flow result with cA4” value [4] was “negative result”. For the same molecule, the ssRNA cleavage activity [5] was “cA4-dependent single-stranded RNase” and the “RNA reporter cleavage compared with AaCan2” value [6] was “requires higher concentrations of cA4 and produces less fluorescent signal”.

B2: AaCan2: Can2 from Archaeoglobi archaeon JdFR-42, JGI 2730024700, SEQ ID NO. 59 (protein)
chain: MSHIHVCLVSDQAIPNLTTALQFNPDTTVLLSTNEMKDKAKRLETVLKNKGLKVKTLKISAYDINDVITVSESLLNDCKGCKVSLNITGGTKIGTLGTFQVFYTASKPIFYVNTKDNEIIKLYPEKEQQKYPIEISISIKDYLAVYGFNVKSYVKDDSYIYKRKKVTDYLANLVIHRPNIIGEINYKLQNFEEKSYPLKINITKNKQVIKLYDILKDSGLVKIRNKSTIEIPDVETAKYLNGIWFEEYVYMMAKSLGADEVKLNVKGVWDTVGKHPPTNEFDILISKGNRLFYISCKTANPDRKIDDTDETIGKEYLYELDSISDSALGLFGKRMLASARAIKNDYVRKRAEILKIDIADGQNIATLKGKLQQWLSK
modifications: Archaeoglobi archaeon
In the case of B2, the ssDNA cleavage activity [1] is reported as “Reproducible cleavage of ssDNA is also detectable”, the “cA4 concentration required for robust ssDNA cleavage” value ([1]; Mn^2+-specific) is reported as 45 nM and the “dsDNase activity, activator and metal dependence” value [2] is reported as “Mn^2+- and cA3-dependent dsDNase”. The “ring-nuclease activity on cyclic nucleotide activator” value [7] was “binds and preserves the cyclic nucleotide”, the ssRNA cleavage activity [5] was “ssRNase when activated with cA4” and the “cA4 concentration giving a similar fluorescent signal” value [6] was 0.5 nM. For the same molecule, the “cA4 range in which rate of fluorescent signal is proportional to activator” value [6] was 1 to 10 nM, the “fold less cA4 needed than TtCsm6 for similar fluorescent signal” value [6] was 20 fold and the “target RNA concentration detected by TtCsm assay coupled with the nuclease” value [8] was 10^5 copies/μL. The “SARS-CoV-2 RNA concentration detected directly in swabs” value ([9]; RNA capture with AaCan2 readout, no RNA extraction or pre-amplification) was 5×10^4 copies/μL, the “Ct of unprocessed swab samples detected” value ([9]; no RNA purification, lysis buffer 0.05% Triton X-100 and 1 mM EGTA, AaCan2 readout) was greater than 21.2 and the “loss of sensitivity compared to detection using purified RNA” value ([9]; unprocessed swab vs purified RNA) was roughly 5 fold. For the same molecule, the “ssRNA sequence cleavage preference” value [10] was “ACGACG”.

B3: CtNucC: NucC from Clostridium tepidum, NCBI WP_195923598.1, SEQ ID NO. 55 (protein, listed as Clostridium tepidum)
chain: MGQIDIKSLFYSLQTQMCAKLSTNRQHIQHPGIKGDSSELNWIEWLKTYLPKRYSVDKAFIIDCDGNMSDQIDVVIYDQQYSPFVFNQDNAYYIPAESVYAIFEVKQEINKENIIYAGDKTKSVRSLKRTSTAIPHAGGYYAPKPHNKILSGILTLSSVWNPPLGKSFEEAIYSLEDESKLDIGCILAEGSFLADYKNDVLMKSTEEESLIFFFLKLLIELQSLGTTPAIDINCYGRALDSI
In the case of B3, the “dsDNase activity among three thermophilic NucC orthologs” value [2] is reported as “highest dsDNase activity”, the “size of plasmid DNA digestion fragments” value [2] is reported as 300-400 bp and the “cA3 sensitivity relative to AaCan2” value [11] is reported as 100 fold. The “cA3 sensitivity relative to TtCan1” value [11] was 10 fold, the “lowest concentration of cA3 detected” value [11] was 0.5 nM and the “target RNA concentration detected by TtCsm assay coupled with the nuclease” value [8] was 10^7 copies/μL.
